Results on 3 molecules are retold here after patent US7790682B1, “Engineered human acidic fibroblast growth factors and associated methods” (The Florida State University Research Foundation, Inc., priority 2003, dated 2010).

The nature of data set [1]: Folding and unfolding kinetics (Chevron plot, stopped-flow CD, GuHCl). Format: physicochemical. Conditions: for kf: folding rate constant extrapolated to 0M GuHCl; for kf / ku: global Chevron fit; for ΔΔG‡-D / ΔΔG‡-N: in reference to WT*; for ΔΔG‡-D: positive value = decrease in folding activation barrier; for ΔΔG‡-N: positive value = decrease in unfolding activation barrier; for mf: slope of ln(kf) vs GuHCl; for mu: slope of ln(ku) vs GuHCl; for ku: unfolding rate constant extrapolated to 0M GuHCl. Here is the method: Due to signal-to-noise considerations, relatively high protein concentrations (>100 μM) of FGF-1 were required for kinetic studies monitored by CD. At these concentrations protein precipitation occurred in ADA buffer. Therefore, a different buffering system was chosen for the kinetic studies to permit higher protein concentrations without precipitation. Protein samples were dialyzed against 50 mM sodium phosphate, 100 mM NaCl, 10 mM ammonium sulfate, 2 mM DTT, and typically 2.5, 3.0 or 3.8M GuHCl pH 7.5 overnight at 298K prior to data collection (higher concentrations of GuHCl were required to ensure complete denaturation for some stabilizing mutations).
Protein samples were degassed for 10 minutes prior to analysis. Refolding was initiated by a 1:10 dilution of protein solutions into 50 mM sodium phosphate, 100 mM NaCl, 10 mM ammonium sulfate, 2 mM DTT pH 7.5 containing either 0.1M or 0.05M increments of GuHCl up to the midpoint of denaturation. All data were collected using an Aviv model SF305 stopped flow system. Data collection times for each protein were designed to quantify the CD signal over 5 half-lives, or >96% of the total expected amplitude.
Protein samples (300 μM) were dialyzed against 50 mM sodium phosphate, 100 mM NaCl, 10 mM ammonium sulfate, 2 mM DTT pH 7.50 buffer overnight at 298K, and degassed for 10 min prior to data collection. Unfolding was initiated by 1:10 dilution of the native protein into 50 mM sodium phosphate, 100 mM NaCl, 10 mM ammonium sulfate, 2 mM DTT pH 7.5 buffer with final GuHCl concentration in the range of 1.5 to 5.5M in 0.5M increments. The unfolding process was quantified by following the change in CD signal at 227 nm, and data collection times for each protein were designed so as to monitor the CD signal over 3 to 4 half-lives, or >93% of the total expected amplitude.
Triplicate scans were collected for both folding and unfolding kinetic data at each GuHCl buffer condition. In all cases, data from at least three separate experiments were averaged. The kinetic rates and amplitudes versus denaturant concentration were calculated from the time dependent change in CD signal using a single exponential model: I(t)=Aexp(−kt)+C (3) where I(t) is the intensity of CD signal at time t, A is the corresponding amplitude, k is the observed rate constant for the reaction and C is a constant that is the asymptote of the CD signal. Folding and unfolding rate constant data were fit to a global function describing the contribution of both rate constants to the observed kinetics as a function of denaturant (“Chevron” plot): In(kobs)=In(kf0exp(mkfD)+ku0exp(mkuD)) (5) where kf0 and ku0 are the folding and unfolding rate constants, respectively, extrapolated to 0M denaturant, mkf and mku are the slopes of the linear functions relating In(kf) and In(ku), respectively, to D, the denaturant concentration. Changes in activation barriers upon mutation were calculated using a modified version of transition state theory: ΔΔG‡-D=RTIn(kf Mut/kfWT*) and ΔΔG‡-N=RTIn(ku Mut/kuWT*) (6) where kf Mut, ku Mut, kf WT* and ku WT* are the folding and unfolding rates for mutant and WT*, respectively, in water. ΔΔG‡-D, and ΔΔG‡-N are the changes in the activation barrier for folding and unfolding, respectively, between mutation and WT*. A positive value for ΔΔG‡-D or ‡‡G‡-N indicates a decrease in the associated activation barrier energy. Isothermal Titration Calorimetry.
Due to the relatively weak differential CD signal of native and denatured FGF-1, the folding kinetics study required relatively high protein concentrations (>5 mg/ml). […] Thus, the refolding rate constants were not obtainable below certain denaturant concentrations for these mutants. […] The SYM6Δ120-122 mutant is substantially destabilized relative to the WT* protein (see Table II) and presents a relatively short “folding arm” in the Chevron plot, for this reason there is greater uncertainty associated with the folding kinetics determined for this mutant. […]

Data set [2] in a line: Isothermal equilibrium denaturation in guanidine HCl monitored by CD. Format: physicochemical. Conditions: for Cm / m-value / ΔG0: GuHCl, 298K, CD signal at 227 nm; for ΔΔG: relative to WT*, negative value = more stable. The protocol: Protein samples were equilibrated overnight in 20 mM N-2-(acetamido)iminodiacetic acid (ADA), 100 mM NaCl pH 6.60 at 298K in 0.1M increments of guanidine HCl (GuHCl). All samples contained a final protein concentration of 25 μM. An Aviv model 202 circular dichroism spectrometer (Proterion Corp., Piscataway, N.J.) equipped with a Peltier controlled temperature unit maintaining a constant temperature of 298K was used for all spectroscopic measurements. For each sample, triplicate scans were collected and averaged. Buffer traces were collected, averaged and subtracted from the sample traces. Data smoothing was performed prior to buffer subtraction using a 5-point Fourier transform filter. The denaturation process was monitored by observing the change in CD signal at 227 nm with increasing GuHCl, according to published references. The general purpose non-linear least squares fitting program DataFit™ (Oakdale Engineering, Oakdale Pa.) was used to fit the change in molar ellipticity at 227 nm versus GuHCl concentration to a six parameter two state model: F=(F0N+SN[D]+F0D+SD[D])e^−((ΔG0+m[D]/RT)/1+e^−((ΔG0+m[D]/RT) (1) where [D] is the denaturant concentration, F0N and F0D are the 0M denaturant molar ellipticity intercepts for the native and denatured states, respectively, and SN and SD are the slopes of the native and denatured state baselines, respectively. ΔG0 and m describe the linear function of the unfolding free energy versus denaturant concentration at 298K. The effect of a given mutation upon the stability of the protein (ΔΔG) was calculated by taking the difference between the Cm values for WT* and mutant and multiplying by the average of the m values, as described by Pace and Scholtz (Measuring the conformational stability of a protein; in Protein Structure: A Practical Approach, Creighton, T. E., ed., pp. 299-321, Oxford University Press, Oxford; 1997): ΔΔG=(CmWT*−Cm mutant)(mWT*+mmutant)/2 (2) Folding Kinetics Measurements.
Previous studies by others of the stability and folding of FGF-1 have been performed by monitoring the fluorescence signal of the single buried Trp 107 in FGF-1. This Trp in the WT* structure is somewhat unusual in that it is more highly quenched in the native state than the denatured. […] We have previously compared the fluorescence and CD spectroscopic response of FGF-1 to denaturation by GuHCl and shown essentially indistinguishable results for both his-tagged and non-his-tagged forms. A tabulation of the mutant thermodynamic data from isothermal equilibrium denaturation, monitored by CD signal, is listed in Table II. The data in this table for the SYM6 mutant are from our previously published isothermal equilibrium denaturation study monitored by fluorescence.

B1: SYM5/ΔΔ: SYM5 FGF-1 mutant plus both Δ104-106 and Δ120-122 deletion mutations (protein, UniProt P05230 16-155, looked up, variant L44F L73V V109L L111I C117V A103G del104-106 R119G del120-122)
Fibroblast growth factor 1: FNLPPGNYKKPKLLYCSNGGHFLRILPDGTVDGTRDRSDQHIQFQLSAESVGEVYIKSTETGQYLAMDTDGLVYGSQTPNEECLFLERLEENHYNTYISKKHGWFLGIKKNGSVKGTHYGQKAILFLPLPVSSD
Turning to B1, in data set [1] (all denaturant concentrations evaluated), the folding behavior result is “single exponential folding behavior”. In data set [1], the kf is 40.4 s⁻¹, the “ΔΔG‡-D” value is reported as 6.20 kJ/mol, the “ΔΔG‡-N” value came to 0.61 kJ/mol and the mf was -4.57 M⁻¹. Also, in data set [1], the mu turned out to be 0.66 M⁻¹ and the ku is reported as 0.88 1 × 10^−3 sec^−1. In data set [2], this molecule registered a Cm of 1.89 ± 0.01 M, a m-value of 18.1 ± 0.7 kJ/mol M, a ΔG0 of 34.2 ± 1.2 kJ/mol and a ΔΔG of -15.9 kJ/mol. For the same molecule, in data set [2] (relative to the SYM5 protein), the “stability of the actual combination mutant” value is -15.1 kJ/mol.

B2: SYM6/Δ120-122: SYM6 FGF-1 mutant plus Arg119→Gly/ΔGly120/ΔPro121/ΔArg122 (protein, UniProt P05230 16-155, looked up, variant L44F M67I L73V V109L L111I C117V R119G del120-122)
Fibroblast growth factor 1: FNLPPGNYKKPKLLYCSNGGHFLRILPDGTVDGTRDRSDQHIQFQLSAESVGEVYIKSTETGQYLAIDTDGLVYGSQTPNEECLFLERLEENHYNTYISKKHAEKNWFLGIKKNGSVKGTHYGQKAILFLPLPVSSD
B2: in data set [1], the kf is 17.3 s⁻¹, the “ΔΔG‡-D” value stood at 4.10 kJ/mol, the “ΔΔG‡-N” value is given as 6.07 kJ/mol and the mf was -9.45 M⁻¹. Besides, in data set [1], the mu came to 0.86 M⁻¹ and the ku is reported as 7.95 1 × 10^−3 sec^−1. In data set [2], this molecule gave a Cm of 0.79 ± 0.01 M, a m-value of 20.0 ± 0.2 kJ/mol M, a ΔG0 of 15.7 ± 0.2 kJ/mol and a ΔΔG of 5.4 kJ/mol.

B3: SYM6/Δ104-106: SYM6 FGF-1 mutant plus Ala103→Gly/ΔGlu104/ΔLys105/ΔAsn106 (protein, UniProt P05230 16-155, looked up, variant A103G E104* K105* N106*)
Fibroblast growth factor 1: FNLPPGNYKKPKLLYCSNGGHFLRILPDGTVDGTRDRSDQHIQLQLSAESVGEVYIKSTETGQYLAMDTDGLLYGSQTPNEECLFLERLEENHYNTYISKKHGWFVGLKKNGSCKRGPRTHYGQKAILFLPLPVSSD
modifications: SYM6 background mutations
notes: SYM6 FGF-1 mutant plus Ala103→Gly/ΔGlu104/ΔLys105/ΔAsn106
Consider B3, for which, in data set [1], the kf was 30.1 s⁻¹, the “ΔΔG‡-D” value is recorded as 5.47 kJ/mol, the “ΔΔG‡-N” value amounted to 3.91 kJ/mol and the mf was -5.41 M⁻¹. Also, in data set [1], the mu was 0.94 M⁻¹ and the ku was 3.33 1 × 10^−3 sec^−1. In data set [2], this molecule displayed a Cm of 1.21 ± 0.01 M, a m-value of 16.9 ± 0.5 kJ/mol M, a ΔG0 of 20.5 ± 0.5 kJ/mol and a ΔΔG of -2.8 kJ/mol.
